Reference: IntAct's records for PubMed 31515488

B1: Segment polarity protein dishevelled homolog DVL-2 (Homo sapiens), O14641 (parent)
chain: MAGSSTGGGGVGETKVIYHLDEEETPYLVKIPVPAERITLGDFKSVLQRPAGAKYFFKSMDQDFGVVKEEISDDNARLPCFNGRVVSWLVSSDNPQPEMAPPVHEPRAELAPPAPPLPPLPPERTSGIGDSRPPSFHPNVSSSHENLEPETETESVVSLRRERPRRRDSSEHGAGGHRTGGPSRLERHLAGYESSSTLMTSELESTSLGDSDEEDTMSRFSSSTEQSSASRLLKRHRRRRKQRPPRLERTSSFSSVTDSTMSLNIITVTLNMEKYNFLGISIVGQSNERGDGGIYIGSIMKGGAVAADGRIEPGDMLLQVNDMNFENMSNDDAVRVLRDIVHKPGPIVLTVAKCWDPSPQAYFTLPRNEPIQPIDPAAWVSHSAALTGTFPAYPGSSSMSTITSGSSLPDGCEGRGLSVHTDMASVTKAMAAPESGLEVRDRMWLKITIPNAFLGSDVVDWLYHHVEGFPERREARKYASGLLKAGLIRHTVNKITFSEQCYYVFGDLSGGCESYLVNLSLNDNDGSSGASDQDTLAPLPGATPWPLLPTFSYQYPAPHPYSPQPPPYHELSSYTYGGGSASSQHSEGSRSSGSTRSDGGAGRTGRPEERAPESKSGSGSESEPSSRGGSLRRGGEASGTSDGGPPPSRGSTGGAPNLRAHPGLHPYGPPPGMALPYNPMMVVMMPPPPPPVPPAVQPPGAPPVRDLGSVPPELTASRQSFHMAMGNPSEFFVDVM
B2: SKA complex subunit 1 (Homo sapiens), Q96BD8 (parent)
chain: MASSDLEQLCSHVNEKIGNIKKTLSLRNCGQEPTLKTVLNKIGDEIIVINELLNKLELEIQYQEQTNNSLKELCESLEEDYKDIEHLKENVPSHLPQVTVTQSCVKGSDLDPEEPIKVEEPEPVKKPPKEQRSIKEMPFITCDEFNGVPSYMKSRLTYNQINDVIKEINKAVISKYKILHQPKKSMNSVTRNLYHRFIDEETKDTKGRYFIVEADIKEFTTLKADKKFHVLLNILRHCRRLSEVRGGGLTRYVIT
partner: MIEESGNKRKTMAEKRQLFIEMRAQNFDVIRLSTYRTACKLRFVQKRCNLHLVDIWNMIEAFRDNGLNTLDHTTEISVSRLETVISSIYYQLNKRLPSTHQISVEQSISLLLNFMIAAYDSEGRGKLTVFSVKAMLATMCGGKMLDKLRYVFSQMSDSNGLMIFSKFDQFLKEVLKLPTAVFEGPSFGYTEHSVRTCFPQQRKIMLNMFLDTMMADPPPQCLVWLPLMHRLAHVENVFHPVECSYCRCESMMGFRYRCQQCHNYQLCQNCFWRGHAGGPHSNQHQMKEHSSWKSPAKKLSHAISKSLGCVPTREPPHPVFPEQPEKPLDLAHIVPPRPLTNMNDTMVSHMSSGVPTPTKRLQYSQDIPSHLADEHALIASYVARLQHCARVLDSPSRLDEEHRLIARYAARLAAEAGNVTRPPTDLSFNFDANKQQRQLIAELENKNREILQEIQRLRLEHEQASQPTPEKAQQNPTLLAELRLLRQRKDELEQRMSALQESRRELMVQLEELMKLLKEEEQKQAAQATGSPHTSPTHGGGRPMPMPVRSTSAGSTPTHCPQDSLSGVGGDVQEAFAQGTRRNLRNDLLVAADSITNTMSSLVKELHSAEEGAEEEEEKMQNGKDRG
B3: U3 small nucleolar RNA-associated protein 25 homolog (Homo sapiens), Q68CQ4 (parent)
chain: MGKRGSRSQSQLLNTLTKKQKKHLRDFGEEHPFYDRVSRKEAKPQICQLSESSDSSDSESDSESEPQQVSGYHRLLATLKNVSEEEEEDEEEEEEEDSIVDDAEMNDEDGGSDVSVEEEMAAESTESPENVALSADPEGKEDGEEPPGTSQTSPEEFTDAKHESLFSLETNFLEEESGDNSSLKASQDPFLQHVNKELKEKAIQAVATNPKTTHELKWPILGQLFFSSKFQKLETFKPPKDIDLKSLHLQKPLESTWTKTNSQFLSGPQKSSSPFTPLQKELFLIMNSYRDLFYPERTALKNGEEIRHVYCLHVINHILKANAQVLGNNSRRRSQKFGVGDDDDFRDQGLTRPKVLIVVPFREAALRVVQLFISLLEGDSKKKIIVSNKKRFQGEYGSDPEERPPNLKRPEDYEAVFVGNIDDHFRIGVAILQRSIRLYAPFYSSDILIASPLGLRTIIGGEGEKKRDFDFLSSIELLIIDQADIYLMQNWEHVLHLMNHMNLLPLDSHGVDFSRVRMWSLNNWSKYYRQTLLFGALQDAQINSVFNKYCVNMQGQVAVRNVPMTGSISHVLVQLPHVFQRMEAENLASVIDARFNFFVNKILPQYRDAVMSHTLIYIPSYFDFVRLRNYFKKEELNFTHICEYTQKSGVSRARHFFLQGEKQFLLFTERFHFYKRYTIKGIRNLIFYELPTYPHFYSEICNMLRATNRGEEATWTCTVLYSKYDAQRLAAVVGVERAAQMLQSNKNVHLFITGEK

Variants of: B1
Settings: with thap1_human THAP1, Q9NVV9
thap1_human THAP1, Q9NVV9, sequence (Q9NVV9 whole entry): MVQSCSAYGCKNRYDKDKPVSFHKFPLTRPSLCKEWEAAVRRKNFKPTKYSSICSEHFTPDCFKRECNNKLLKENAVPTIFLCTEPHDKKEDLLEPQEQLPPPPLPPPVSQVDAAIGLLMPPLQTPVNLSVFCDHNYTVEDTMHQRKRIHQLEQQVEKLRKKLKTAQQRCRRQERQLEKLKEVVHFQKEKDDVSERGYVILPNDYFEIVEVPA

Row | Variant | effect of a mutation on the interaction
1 | T535I | with no effect

Variants of: B1
Settings: with kc1e_human CSNK1E

Row | Variant | effect of a mutation on the interaction
2 | T535I | with no effect

Variants of: B1
Settings: with traf2_human TRAF2, Q12933
traf2_human TRAF2, Q12933, sequence (Q12933 whole entry): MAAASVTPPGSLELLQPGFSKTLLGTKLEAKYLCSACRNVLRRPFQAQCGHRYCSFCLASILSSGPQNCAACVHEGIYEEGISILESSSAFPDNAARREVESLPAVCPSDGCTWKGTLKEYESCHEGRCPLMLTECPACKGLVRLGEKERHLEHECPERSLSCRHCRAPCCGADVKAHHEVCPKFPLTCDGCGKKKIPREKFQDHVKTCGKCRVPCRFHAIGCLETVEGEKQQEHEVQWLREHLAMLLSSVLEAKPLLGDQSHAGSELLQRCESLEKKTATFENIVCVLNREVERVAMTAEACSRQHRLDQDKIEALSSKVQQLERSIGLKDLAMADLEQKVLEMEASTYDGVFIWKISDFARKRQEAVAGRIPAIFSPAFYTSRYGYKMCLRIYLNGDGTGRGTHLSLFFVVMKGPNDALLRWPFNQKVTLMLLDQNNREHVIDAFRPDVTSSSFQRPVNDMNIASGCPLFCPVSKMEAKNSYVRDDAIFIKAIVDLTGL

Row | Variant | effect of a mutation on the interaction
3 | R415Q | with no effect

Variants of: B1
Settings: with ap2m1_human AP2M1, Q96CW1
ap2m1_human AP2M1, Q96CW1, sequence (Q96CW1 whole entry): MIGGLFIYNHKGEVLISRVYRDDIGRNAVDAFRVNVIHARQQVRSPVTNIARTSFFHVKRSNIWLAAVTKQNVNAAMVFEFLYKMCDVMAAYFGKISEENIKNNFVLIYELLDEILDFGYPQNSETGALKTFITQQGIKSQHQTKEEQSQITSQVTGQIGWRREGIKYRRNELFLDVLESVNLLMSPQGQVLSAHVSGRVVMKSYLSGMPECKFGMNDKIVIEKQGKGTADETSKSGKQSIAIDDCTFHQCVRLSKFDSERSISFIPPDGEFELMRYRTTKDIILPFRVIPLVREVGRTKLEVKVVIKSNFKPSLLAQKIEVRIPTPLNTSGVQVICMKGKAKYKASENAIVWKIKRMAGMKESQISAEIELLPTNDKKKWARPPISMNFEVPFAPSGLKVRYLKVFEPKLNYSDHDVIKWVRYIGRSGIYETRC

Row | Variant | effect of a mutation on the interaction
4 | R415Q | with no effect

Variants of: B2
Settings: with dtnb_human DTNB

Row | Variant | effect of a mutation on the interaction
5 | MASSDLEQLCSHVNEKIGNIKKTLSLRNCGQEPTLKTVLNKIGDEIIVINELLNKLELEIQYQEQTNNSLKELCESLEEDYKDIEHLKENIPSHLPQVTVTQSCVKGSDLDPEEPIKVEEPEPVKKPPKEQRSIKEMPFITCDEFNGVPSYMKSRLTYNQINDVIKEINKAVISKYKILHQPKKSMNSVTRNLYHRFIDEETKDTKGRYFIVEADIKEFTTLKADKKFHVLLNILRHCRRLSEVRGGGLTRYVIT [V91I] | with no effect

Variants of: B3
Settings: with rufy1_human RUFY1, Q96T51
rufy1_human RUFY1, Q96T51, sequence (Q96T51 whole entry): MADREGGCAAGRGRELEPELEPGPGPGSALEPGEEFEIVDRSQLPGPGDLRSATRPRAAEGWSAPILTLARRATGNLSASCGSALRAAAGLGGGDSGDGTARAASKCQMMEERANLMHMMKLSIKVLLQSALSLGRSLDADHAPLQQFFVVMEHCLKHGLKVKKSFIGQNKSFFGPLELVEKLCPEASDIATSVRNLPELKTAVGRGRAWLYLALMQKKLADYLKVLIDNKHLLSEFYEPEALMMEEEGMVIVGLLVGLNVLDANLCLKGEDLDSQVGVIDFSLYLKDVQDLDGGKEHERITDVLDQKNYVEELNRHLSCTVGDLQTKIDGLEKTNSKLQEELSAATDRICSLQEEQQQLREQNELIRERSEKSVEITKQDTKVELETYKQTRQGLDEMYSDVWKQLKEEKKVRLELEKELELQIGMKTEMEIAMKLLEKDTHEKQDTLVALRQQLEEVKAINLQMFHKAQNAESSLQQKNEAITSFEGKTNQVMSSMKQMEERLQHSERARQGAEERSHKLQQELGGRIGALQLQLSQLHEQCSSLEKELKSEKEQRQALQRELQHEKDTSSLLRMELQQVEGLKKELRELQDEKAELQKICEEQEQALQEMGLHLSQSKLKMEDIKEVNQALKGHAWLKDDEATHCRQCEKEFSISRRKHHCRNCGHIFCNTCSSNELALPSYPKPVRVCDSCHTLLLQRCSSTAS

Row | Variant | effect of a mutation on the interaction
6 | Q67E | with no effect

Variants of: B3
Settings: with cep70_human CEP70, Q8NHQ1
cep70_human CEP70, Q8NHQ1, sequence (Q8NHQ1 whole entry): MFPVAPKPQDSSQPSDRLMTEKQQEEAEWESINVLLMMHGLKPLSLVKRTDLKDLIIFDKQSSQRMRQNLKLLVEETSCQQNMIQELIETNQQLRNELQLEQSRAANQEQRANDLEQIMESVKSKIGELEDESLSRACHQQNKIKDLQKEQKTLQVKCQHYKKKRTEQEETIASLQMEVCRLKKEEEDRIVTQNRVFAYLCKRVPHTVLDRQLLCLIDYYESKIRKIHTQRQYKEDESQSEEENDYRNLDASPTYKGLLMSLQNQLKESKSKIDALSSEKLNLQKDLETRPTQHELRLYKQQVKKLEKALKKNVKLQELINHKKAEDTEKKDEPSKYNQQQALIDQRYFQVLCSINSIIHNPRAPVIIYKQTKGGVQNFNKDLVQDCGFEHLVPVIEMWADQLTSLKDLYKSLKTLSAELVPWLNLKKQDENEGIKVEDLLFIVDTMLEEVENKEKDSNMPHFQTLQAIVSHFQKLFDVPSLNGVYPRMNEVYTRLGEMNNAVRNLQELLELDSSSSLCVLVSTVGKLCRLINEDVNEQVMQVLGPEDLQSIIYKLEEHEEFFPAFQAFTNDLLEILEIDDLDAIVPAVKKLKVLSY

Row | Variant | effect of a mutation on the interaction
7 | Q67E | with no effect

Variants of: B3
Settings: with trim1_human MID2, Q9UJV3
trim1_human MID2, Q9UJV3, sequence (Q9UJV3 whole entry): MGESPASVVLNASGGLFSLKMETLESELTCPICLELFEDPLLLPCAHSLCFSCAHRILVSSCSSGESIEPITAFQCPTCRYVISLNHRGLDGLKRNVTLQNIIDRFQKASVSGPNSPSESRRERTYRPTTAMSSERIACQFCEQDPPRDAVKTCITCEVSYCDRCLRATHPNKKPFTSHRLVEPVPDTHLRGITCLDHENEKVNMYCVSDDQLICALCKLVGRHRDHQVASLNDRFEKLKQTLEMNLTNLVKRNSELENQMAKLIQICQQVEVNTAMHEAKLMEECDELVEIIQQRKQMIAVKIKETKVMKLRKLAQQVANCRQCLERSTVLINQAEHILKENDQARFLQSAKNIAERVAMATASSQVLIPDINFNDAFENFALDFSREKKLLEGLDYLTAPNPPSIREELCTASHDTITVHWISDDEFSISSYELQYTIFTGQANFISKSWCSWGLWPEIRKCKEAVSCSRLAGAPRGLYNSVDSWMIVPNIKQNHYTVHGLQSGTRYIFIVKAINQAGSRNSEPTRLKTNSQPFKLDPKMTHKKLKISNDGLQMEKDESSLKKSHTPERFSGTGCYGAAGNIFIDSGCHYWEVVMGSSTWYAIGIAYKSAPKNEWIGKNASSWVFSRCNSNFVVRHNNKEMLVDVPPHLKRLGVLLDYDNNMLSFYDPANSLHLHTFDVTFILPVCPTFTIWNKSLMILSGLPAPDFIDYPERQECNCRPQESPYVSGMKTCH

Row | Variant | effect of a mutation on the interaction
8 | Q67E | with no effect
